Reference: patent publication US8450280B2, “Activation of peptide prodrugs by hK2” (GenbSpera, Inc., priority 1999, dated 2013)

Legend:
Assay in all cases: Kinetic constants of AMC substrate hydrolysis by hK2
Assay type in all cases: biochemical, human
Conditions in all cases: other: 50 mM Tris pH 7.5, 0.1 M NaCl, 0.2% BSA, 37° C., Lineweaver-Burk
[1] = tested on: T1, Cc1cc(=O)oc2cc(NC(=O)[C@H](CCCNC(=N)N)NC(=O)[C@H](Cc3ccccc3)NC(=O)[C@@H]3CCCN3)ccc12
T1 construct: made in house
Protocol: (§1) The measurements were done with Fluoroscan II (Labsystems, Helsinki, Finland) using a 355 nm excitation filter and a 460 nm emission filter. The fluorescence of 7-amino-4-methylcoumarin (AMC) (Sigma, St. Louis, Mo., USA) was determined to be 700 FIU/nmol and this value was used in the calculations of the rate of product formation. Unless otherwise indicated all final analyses were performed in 200 μl of the buffer 50 mM Tris pH 7.5, 0.1 M NaCl, and 0.2% BSA at 37° C. using 1.6 pmol hK2. BSA was added to the reaction mixture in order to minimize adsorption of the enzyme to the walls of the microtiter wells. The amount of hK2 was quantified by a commercial PSA immunoassay (Prostatus, Wallac, Turku, Finland) with the Mabs H1 17 and H50 which recognize PSA and hK2 equally well (Lovgren et al., Biochem. Biophys. Res. Co., 213, 888-895 (1995)). Under the conditions described, 1.6 pmol of the hK2 preparation cleaved 50 pmol/min of the 100 μM substrate Pro-Phe-Arg-AMC (SEQ ID NO: 55). During the 20 minute measurement time the consumption of the substrates is <7% of their total amount and was not considered to affect the reaction rate. Initial analysis of the substrates were performed with 3.2 pmol hK2 at a substrate concentration of 250 μM. Km value for the substrates cleaved by hK2 at these conditions were determined using at least four substrate concentrations ranging from 0.2×Km to 5×Km. The Km and kcat values were calculated from Lineweaver-Burk plots.
(§2) Substrates ending in either arginine or lysine were tested. […] However, no hydrolysis of Arg-Gln-Arg-Arg-AMC (SEQ ID NO: 63) was detected. […] As with the semenogelins, hK2 also here cleaves substrates with Arg at position P1 and preferentially a large residue or another Arg at position P2. None of the substrates with lysine in the C-terminal position were cleaved.
(§3) The activity listed in Table 1 is hydrolytic activity of hK2 with 100 μM substrate in relation to the hydrolytic activity of hK2 with 100 μM of the tissue kallikrein substrate H-Pro-Phe-Arg-AMC (SEQ ID NO: 55). The entry “NR” means that no reaction was detected.

[2] = tested on: T2, Cc1cc(=O)oc2cc(NC(=O)[C@H](CCCNC(=N)N)NC(=O)[C@H](CCCNC(=N)N)NC(=O)[C@H](C)NC(=O)OCc3ccccc3)ccc12
T2 construct: made in house
Protocol: as §1, §2, §3

[3] = tested on: T3, Cc1cc(=O)oc2cc(NC(=O)[C@H](CCCNC(=N)N)NC(=O)[C@H](CC(C)C)NC(=O)[C@H](CC(C)C)NC(=O)OCc3ccccc3)ccc12
T3 construct: made in house
Protocol: as §1, §2, §3

[4] = tested on: T4, Cc1cc(=O)oc2cc(NC(=O)[C@H](CCCNC(=N)N)NC(=O)[C@@H]3CCCN3C(=O)[C@@H](NC(=O)OC(C)(C)C)C(C)C)ccc12
T4 construct: made in house
Protocol: as §1, §2, §3

## recombinant hK2 (Homo sapiens)
[1]
  Km: 40 µM
  kcat: 0.917 s⁻¹
  kcat/Km: 22900 M⁻¹ s⁻¹
[2]
  Km: 20 µM
  kcat: 0.12 s⁻¹
  kcat/Km: 6000 M⁻¹ s⁻¹
[3]
  Km: 71 µM
  kcat: 0.04 s⁻¹
  kcat/Km: 567 M⁻¹ s⁻¹
[4]
  Km: 48 µM
  kcat: 0.0267 s⁻¹
  kcat/Km: 567 M⁻¹ s⁻¹
